According to ChEMBL document CHEMBL2074368, “Kinetic analysis of calcein and calcein-acetoxymethylester efflux mediated by the multidrug resistance protein and P-glycoprotein” (Biochemistry, 1998):

System: CC(=O)OCOC(=O)CN(CC(=O)OCOC(C)=O)Cc1c(OC(C)=O)ccc2c1Oc1c(ccc(OC(C)=O)c1CN(CC(=O)OCOC(C)=O)CC(=O)OCOC(C)=O)C21OC(=O)c2ccccc21
Assay: TP_TRANSPORTER: efflux in K562/ADR cells
Format: functional, cell-based

Substance: ATP-dependent translocase ABCB1 (Homo sapiens)
- Km: 0.12 µM
